Laboratory results as given in patent publication US6428967.

Legend:
[1] = target: wild type human LDL receptor on CHO cells (human) (UniProt P01130); assay: 125I-LDL surface binding on CHO cells expressing the wild type human LDL receptor, with or without Dab1
[2] = target: wild type human LDL receptor on CHO cells (human) (UniProt P01130); assay: cell-based or functional assay

Chain of wild type human LDL receptor on CHO cells (human) (P01130 22-860): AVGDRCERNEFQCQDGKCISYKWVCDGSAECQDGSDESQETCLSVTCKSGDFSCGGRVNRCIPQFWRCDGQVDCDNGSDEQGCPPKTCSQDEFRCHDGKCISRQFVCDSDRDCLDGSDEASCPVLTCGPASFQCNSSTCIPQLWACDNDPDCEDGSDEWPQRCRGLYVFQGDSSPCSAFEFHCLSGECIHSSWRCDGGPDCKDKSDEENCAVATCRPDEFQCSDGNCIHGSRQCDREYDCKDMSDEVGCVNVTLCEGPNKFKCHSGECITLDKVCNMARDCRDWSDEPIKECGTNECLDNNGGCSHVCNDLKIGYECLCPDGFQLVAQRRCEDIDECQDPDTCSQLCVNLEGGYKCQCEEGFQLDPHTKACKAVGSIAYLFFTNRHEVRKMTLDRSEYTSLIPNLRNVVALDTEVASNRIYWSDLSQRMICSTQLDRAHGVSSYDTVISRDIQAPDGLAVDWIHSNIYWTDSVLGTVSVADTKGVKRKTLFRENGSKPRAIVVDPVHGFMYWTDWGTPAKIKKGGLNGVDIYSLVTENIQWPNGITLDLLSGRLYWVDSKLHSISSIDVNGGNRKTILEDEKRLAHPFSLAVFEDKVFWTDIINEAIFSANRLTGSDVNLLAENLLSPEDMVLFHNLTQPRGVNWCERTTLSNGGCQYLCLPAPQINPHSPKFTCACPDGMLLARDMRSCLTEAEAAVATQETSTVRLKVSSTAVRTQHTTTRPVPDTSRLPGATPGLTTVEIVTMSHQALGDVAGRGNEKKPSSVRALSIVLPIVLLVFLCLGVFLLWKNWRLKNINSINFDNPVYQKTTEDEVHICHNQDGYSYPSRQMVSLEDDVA

125I labeled human LDL, P04114 28-4563
fold of LDL bound on the cell surface, cells with Dab1 against cells without Dab1 [1]: 2 times

Dab1 expressed in CHO cells from pcDNA3.1/ZEO DAB555 (from UniProt P97318 1-555)
LDL bound on the cell surface (125I labeled human LDL) [2]: 2 times
